Here are results for one molecule from patent US20250051407A1, “De novo designed sequence-specific DNA binding proteins” (University of Washington, priority 2023, published 2025).

The test system of one experiment is 13 unique dsDNA targets. Briefly: All-by-all yeast surface display screen of DBP design hits. Type of experiment: binding. Here is the method:
And an all-by-all screen of DBP design hits to 13 unique dsDNA targets was performed (FIG. 4, table 2). […] To try to understand these observed binding preferences, each tested DNA sequence was threaded onto each design complex model at all possible base pair alignments, the alternative complex models were relaxed with Rosetta™, and the model with the most favorable Rosetta™ ΔΔG was selected.
Saccharomyces cerevisiae EBY100 strain cultures were grown in C-Trp-Ura medium supplemented with 2% (w/v) glucose. For induction of expression, yeast cells were centrifuged at 6,000 g for 1 min and resuspended in SGCAA medium supplemented with 0.2% (w/v) glucose at the cell density of 1×10^7 cells per ml and induced at 30° C. for 16-24 h. Cells were washed with PBSF (PBS with 1% (w/v) BSA) and labeled with biotinylated targets using two labeling methods: with-avidity and without-avidity labeling. For the with-avidity method, the cells were incubated with biotinylated target, together with anti-c-Myc fluorescein isothiocyanate (FITC, Miltenyi Biotech) and streptavidin-phycoerythrin (SAPE, ThermoFisher). The concentration of SAPE in the with-avidity method was used at one-quarter of the concentration of the biotinylated targets. For the without-avidity method, the cells were first incubated with biotinylated targets, washed and secondarily labeled with SAPE and FITC.
(§1) For yeast display characterization of individual designs, including competition assays, DNA sequences encoding the proteins of interest were purchased as Integrated DNA Technologies (IDT) E-Blocks™, transformed into yeast cells, and incubated in 96 well culture plates. Labeling with biotinylated dsDNA targets and SAPE/FITC was performed in a 96 well plate format. For yeast display competition assays, labeling was performed without avidity using 1 μM biotinylated dsDNA duplex oligos and an excess of 8 μM non-biotinylated competitor dsDNA duplex oligos. […] Flow cytometry analysis was performed with an Attune NxT™ flow cytometer with autosampler. Flow cytometry data analysis was performed using custom python code and the CytoFlow™ python package. For each individual sample, gating of the expression population was performed using the CytoFlow™ Gaussian Mixture Model and the ratio of SAPE channel intensity to FITC channel intensity (binding signal/expression signal) was calculated for all gated expression events of the sample.

In experiment [1] the test system is synTF-specific cis-regulatory elements (CRE) in HEK293T cells. Briefly: Transcriptional activation by synTFs in HEK293T cells (ENGRAM). The experiment is classed as cell-based. The conditions noted are these: DBP fused to GCN4 dimerization domain and VP64; HEK293T cells expressing PEmax; dependent on spacing between motifs. The source says:
Next, we investigated whether the DBPs can be used as activators in mammalian cells. A set of synthetic transcription factors (synTFs) were created by fusing the GCN4 dimerization domain and the VP64 activation domain to the C-termini of DBPs 9, 35opt, 48, 57, and 60 which recognize 3 unique motifs. The dimerization domain allows the DBPs to recognize a palindromic target sequence consisting of two binding motifs, improving the binding affinity to the DNA sequence (FIG. 2C). We created synTF specific cis-regulatory elements (CRE) with 4 repeats spaced by 6 bp to drive the expression of downstream genes, and used the ENGRAM (43) recording technology to measure the activity of the synTFs in HEK293 cells. In ENGRAM, each CRE drives the expression of a uniquely barcoded pegRNA, which upon expression is recorded into the DNA TAPE at the HEK3 locus by prime-editor (PEmax); the activity of individual synTFs can be measured as the abundance of the barcode on the DNA TAPE (FIG. 2C). We first tested 3 different spacings-1 bp, 3 bp, and 5 bp-between the palindromic binding motifs to maximize the recorder activity. 3 synTF specific recorders and 1 TCF-LEF-recorder (negative control) were mixed with ratio 2:2:2:1 and co-transfected with synTFs into the HEK293T cells expressing PEmax. Cells were harvested and analyzed 2 days post-transfection. After analyzing the barcode abundance on the DNA TAPE, we observed 3-5 fold activation for DBP9/DBP35 and DBP57/DBP60 (FIG. 2D).
HEK293T cells expressing PEmax™ were cultured in DMEM High glucose (GIBCO), supplemented with 10% Fetal Bovine Serum (Rocky Mountain Biologicals) and 1% penicillin-streptomycin (GIBCO). Cells were grown with 5% CO2 at 37° C. 1×10^5 cells were seeded on a 48-well plate a day before transfection. Enhancer plasmid and binder plasmid were mixed with a ratio of 2:1. Enhancer variants and background control were mixed with a ratio of 2:2:2:1. A total of 300 ng of plasmid were transfected using Lipofectamine™ 3000 (ThermoFisher, L3000015), following the manufacturer's protocol. Cells were harvested 2 days post-transfection. Genomic DNA was extracted based on the protocol described earlier (43). Briefly, cells were lysed using freshly prepared lysis buffer (10 mM Tris-HCl, pH 7.5; 0.05% SDS; 25 µg/ml protease (ThermoFisher)) for each well. The genomic DNA mixture was incubated at 50° C. for 1 h, followed by an 80° C. enzyme inactivation step for 30 min. The DNA TAPE was amplified from the genomic DNA directly for next generation sequencing. Recorded information was extracted via custom analysis code. Each enhancer has a unique barcode representing its activity. Transcription activation was measured as the fold change in the barcode abundance relative to the negative control barcode. All measurements were performed in triplicates.

Experiment [2] has as its system biotinylated target dsDNA with non-biotinylated competitor dsDNA. The experiment is described as follows: Yeast display competition assay with base-substituted competitor dsDNA. Type of experiment: binding.
Source text: We used a yeast display competition assay to characterize the DNA binding site specificity of a subset of the designs (FIG. 1A-E, left; FIG. 5). Addition of non-biotinylated competitor dsDNA to biotinylated target sequence reduced binding signal by flow cytometry (FIG. 1A-E, middle). […] For example, in DBP6 (FIG. 1A) R31 and R36 in the design model form bidentate hydrogen bonds with the guanines of base pair positions G12 and C9, respectively, while T32 forms a hydrogen bond with C10.
as §1

The next experiment has as its system dsDNA target. Briefly: Site saturation mutagenesis (SSM) library sorting, protein-side footprinting. Type of experiment: binding. The protocol: As disclosed in the examples that follow, the contributions of each amino acid to binding for additional designs, high-resolution footprints of the binding surface as generated was assessed by sorting site saturation mutagenesis libraries (SSMs) in which every residue was substituted with each of the 20 amino acids one at a time for DBPs 1, 6, and 35. Permissible substitutions for many of the polypeptides of the disclosure are provided in columns 2 and 3 Tables 4-19.
Thus, in some embodiments, substitutions relative to the reference sequence are selected from residues listed in columns 2 or 3 of one of Tables 4-19. In other embodiments, substitutions relative to the reference sequence are selected from residues listed in column 2 of one of Tables 4-19. Column 2 lists the “best” substitutions, which retain or improve DNA target binding activity relative to the reference sequence. Column 3 lists “permissible” substitutions, which retain binding to the DNA target sequence.
To assess the contributions of each amino acid to binding for additional designs, high-resolution footprints of the binding surface as generated by sorting site saturation mutagenesis libraries (SSMs) in which every residue was substituted with each of the 20 amino acids one at a time for DBPs 1, 6, and 35. […] In a small number of cases, substitutions led to notable improvements in binding affinity.
Cell sorting of labeled yeast pools was performed using a Sony SH800S cell sorter. Libraries of designs were sorted using the with-avidity method for the first few rounds of screening to exclude weak binder candidates, followed by several without-avidity sorts with different concentrations of targets. For SSM libraries, two rounds of with-avidity sorts were applied and in the third round of screening the libraries were titrated with a series of decreasing concentrations of targets to enrich mutants with beneficial mutations.
The Pear program was used to assemble the fastq files from the deep sequencing runs. Translated, assembled reads were matched against the ordered design to determine the number of counts for each design in each pool. In each sequenced pool, binder enrichment was calculated by determining the percent of reads for each binder design in the pool and dividing this number by the same value in the naive expression sort pool. […] For SSM libraries, apparent SC50 was estimated using the fitting procedure described in Longxing et al. (15)

B1: DBP35: designed DNA-binding protein, SEQ ID NO: 15, DNA target B (protein)
chain: GFGRAVKEKRKELGLTQKEFAEKAGLSRRTIIRIERGYIVPPKATKEKIAKALGTSVEELEQA
As for B1, the “Number of the 13 tested DNA target sequences preferentially bound” value in the experiment on 13 unique dsDNA targets (1 μM dsDNA with avidity, including designed target sequence) was “less than 3”. Besides, the “Binding specificity versus design models” value in the experiment with 13 unique dsDNA targets (all-by-all screen with Rosetta-predicted motifs) is listed as “bound with specificity closely consistent with the design models”. Also, the “Fold activation of synTFs measured as normalized barcode abundance in the DNA TAPE” value in experiment [1] is recorded as 3-5 fold. For the same molecule, in experiment [2], the “Number of base positions of specificity” value is reported as 3 base positions. For the same molecule, the “DNA binding site specificity” value in experiment [2] (all possible base mutations at each position of the competitor oligo) is “specificities consistent with the designed sidechain-base interactions”. Moreover, the Substitutions improving binding entry in the experiment on dsDNA target (every residue substituted with each of the 20 amino acids) was “substitutions of R33 and K18 improved binding”. The “Tolerance of positions to substitution” value with dsDNA target (interface, core and surface positions) was “most positions at the interface and the core were largely conserved while positions at the surface were more tolerant of substitutions”.
